The source of these data is the supplement of paper PMC7125110.

Sequences and labels used below:
B1: glmS ribozyme (parent)
chain: AUAAAAGCGCCAGAACUACAGAAAUGUAGUUGACGAGGAGGAGGUUUAUCGAAUUUUCGGCGGAUGCCUCCAAA

± gives the standard error. This sample holds only a part of the variants without activity.

In one data set the parent is B1. Nature of the data set: self-cleavage kobs at 2500 uM GlcN6P; higher = faster cleavage; RNA array. The settings on record: with glucosamine-6-phosphate. In short, it runs like this:
(§1)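 Tiles of sequenced MiSeq chips were imaged over ~14 h at 37 °C. On them, barcoded ribozyme variants had been transcribed in situ by E. coli RNA polymerase and were tracked via a hybridised Cy3 probe while glucosamine-6-phosphate (40 μM to 10 mM) in HEPES/KCl/Mg(OAc)2 buffer flowed in. Per-tile medians, normalised to baseline and to non-cleaving reference variants, were fit to one- or two-exponential decays for kobs, and weighted Michaelis–Menten fits gave kcat and KM.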
As for AUAAAAGCGCCAGAAUUACAGAAAUGUAGUUGACGAGGAGGAUGGUUAUCGAAUUUUCGGCGGAUGCCUCCAAA, the “self-cleavage kobs at 2500 uM GlcN6P” value was 0.00141 ± 0.00031 s⁻¹.

Take AUAAAAGCUCCAGAACUACAGAAAUGUAGUUGACGAGGAGCAGGUUUAUCGAAUUUUCAGCGGAUGCCUCUAAA: the “self-cleavage kobs at 2500 uM GlcN6P” value was below 1e-05 s⁻¹.

In the case of AUAAAAGCUCCAGAAAUACAGAAAUGUAGGUGACGAGGAGGAGGUUUAUCGAAUUUUCGGCGGAUGCCUCCAAA, the “self-cleavage kobs at 2500 uM GlcN6P” value is below 1e-05 s⁻¹.

Consider AUAAAAGCGCCAGAACUACAGAAAUGUAGUUGACAAGGAUGAGGUUUAUCAAAUUUUCGGCGGAUGCCGCCAAA, for which the “self-cleavage kobs at 2500 uM GlcN6P” value was below 1e-05 s⁻¹.

Turning to AUAAAAGCGCCAGAACUACAGAAAUGUAGUUGACGAGGAGGAGAUUUAUCGAAUUUUCGGCGGAUUGCUCCAAA, the “self-cleavage kobs at 2500 uM GlcN6P” value amounted to 0.00142 ± 0.00035 s⁻¹.

As to AUAAAAGCGCCAGAACUACAGAAAUGUAGUUGACGAGGAGUAGGUUUAUCGAAUUCUCGGCGGAUGCCUGCAAA, the “self-cleavage kobs at 2500 uM GlcN6P” value amounted to 0.00166 ± 0.00032 s⁻¹.

Take AUAAAUGCGGCAGAACUACAGAAAUGUAGUUGACGAGGUGGAGGUUUAUCGAAUUUUCGGCGGAUGCCUCUAAA: the “self-cleavage kobs at 2500 uM GlcN6P” value was below 1e-05 s⁻¹.

On to AUAAAAGCGCCUCAACUACAGAAAUGUAGUUGACGAGGAGGAGGUUUAUCGAAUUGUCGGCGGAUGUCUCCAAA, for which the “self-cleavage kobs at 2500 uM GlcN6P” value was below 1e-05 s⁻¹.

Regarding AUAAAGCCGCCAGAACUACAGAAAUGUAGUUGACGUGGUGGAGGUUUAUCGAAUUUUCGGCGGAUGCCUCCAAA, the “self-cleavage kobs at 2500 uM GlcN6P” value was below 1e-05 s⁻¹.

Consider AUAAAAGCGCCAGAACUACAGAAAUGUAGGUGACGAGGAGGAUGUUUAUCGGAUUUUCGGCGGAUGACGCCAAA, for which the “self-cleavage kobs at 2500 uM GlcN6P” value was below 1e-05 s⁻¹.

In the case of AUAAAAGCGCCUGAACUACAGAAAUGUAGUUGACGCGGAGGAGGUUUAUCGAAUUUUCUGCGGAAGCCUCCAAA, the “self-cleavage kobs at 2500 uM GlcN6P” value was below 1e-05 s⁻¹.

Consider AUAAAAGCGCCAGCACUACAGAAAUGUAGUUGACGAGGAGGAGGUGUAUCGAAUUUUCGGCGGAUGCCUACAAA, for which the “self-cleavage kobs at 2500 uM GlcN6P” value worked out at 0.000308 ± 9.2e-05 s⁻¹.

As for AUAAAAGCGCAAGCACUACAGAAAUGUAGUUGACGAGGAGGAGGUUUAUCGAAUUUUCGGCGGAUGCCUUCAAA, the “self-cleavage kobs at 2500 uM GlcN6P” value was found to be 7.46e-05 ± 2.7e-05 s⁻¹.

As for AUAAAAGCGCCAGAACUACAGAAAUGUAGUGUACGAGGAGGAGGUUUAUCGAAUUUUCGGCGGAUGCCUCUAAA, the “self-cleavage kobs at 2500 uM GlcN6P” value amounted to 0.000775 ± 0.00015 s⁻¹.

For AUAAAAGCGCCAGAACUACAGAAAUGUAGUGGCCGAGCGGGAGGUUUAUCGAAUUUUCGGCAGAUGCCUCCAAA, the “self-cleavage kobs at 2500 uM GlcN6P” value is below 1e-05 s⁻¹.

In the case of AUAAACCCGUCAGAACUACAGAAAUGUACUUGACGAGGAGGAGGUUUAUCGAAUUUUGGGCGGAUGCCUCCAAA, the “self-cleavage kobs at 2500 uM GlcN6P” value was below 1e-05 s⁻¹.

On to AUAAAAGCGCCAGAACUACAGAAAUGUAGUUGACGAAGAGGACGUUUAUCGAAUUUUGGGCGGAUGCCUCCAAA, for which the “self-cleavage kobs at 2500 uM GlcN6P” value is below 1e-05 s⁻¹.

Take AUAAAAGGGCCAGAACUACAGAAAUGUAGUUGACGAGGAGGAGGUGUUUCGAAUGUUCGGCGGAUUCCUUCAAA: the “self-cleavage kobs at 2500 uM GlcN6P” value was below 1e-05 s⁻¹.

Regarding AUAAAAGCGCCAUAACUACAGAAAUGUAGUUGACGAGGAGGAGGAAUAUCGAAUUUUUGGCGGAUGCCUCCAAA, the “self-cleavage kobs at 2500 uM GlcN6P” value was 6.89e-05 ± 3.4e-05 s⁻¹.

Consider AUAAAAGCACGAGAACUACAGAAAUGUAGUUGUCAAGGAGGAGGUUUAUCGAAUUUUAGGCGGAUGCCUGCAAA, for which the “self-cleavage kobs at 2500 uM GlcN6P” value was below 1e-05 s⁻¹.

Regarding AUAAAUGCGCCAAAACUACAGAAAUGUAGUUGACGAGGAGGAGGUUUACCGAAUUUUCGGCGGAUGCCUCCAAA, the “self-cleavage kobs at 2500 uM GlcN6P” value was below 1e-05 s⁻¹.

Turning to AUAAAUGCGCCAGAACUACAGAAAUGUAGUUGACUAGGAGGAGGUUUAUCGAAUUUUCUGCGGAUGCCUCCAAA, the “self-cleavage kobs at 2500 uM GlcN6P” value is below 1e-05 s⁻¹.

For the variant AUAAAAGCGCCAGGACUACAGAAAUGUAGUUGUCGAGGAGGAGGUUUAUCGAAUUUUCGUCGGAUGCCUCCAAA, the “self-cleavage kobs at 2500 uM GlcN6P” value is below 1e-05 s⁻¹.

Consider AUAAAAGCGCCAGAAUUACAGAAAUGUAUUUGACGAGGAGGAGGUUUAUCGAUUUUUCGGCGGAUGCCUCCAAA, for which the “self-cleavage kobs at 2500 uM GlcN6P” value is 0.00254 ± 0.00062 s⁻¹.

Consider AUAAAAGCGCCACAACUACAGAAAUGUAGUUGACGAGGAGGUCGUUUAUCCAAUUUGCGGCGGGUGCCUCUAAA, for which the “self-cleavage kobs at 2500 uM GlcN6P” value was below 1e-05 s⁻¹.

AUAAAAGCGCCAGAACUACAGAAAUGUAGUUGACGAGGAGGAGGUUUAUCGAGUUUUCGGCGGGUGGCUCCAAA: the “self-cleavage kobs at 2500 uM GlcN6P” value worked out at 0.000335 ± 9.1e-05 s⁻¹.

As for AUAAAAACGCCAGAACUACAGAAAUGUAGUUGACGAGGAGGAGGUUUAUCGAAUUUUCGGCGGCUGGCGCCAAA, the “self-cleavage kobs at 2500 uM GlcN6P” value is below 1e-05 s⁻¹.

For AUAAAAGCGCCAGAACUACAGAAAUGUAGUUGACGAGGAGUACGUUUAUCUAAUUUUCGGCGGAUGCGUCCAAA, the “self-cleavage kobs at 2500 uM GlcN6P” value is below 1e-05 s⁻¹.

As to AUAAAAGCGCCAGAAUUACAGAAAUGUAGUUGACGAGGAGGAGGUCUAUCGACUUUUCGGCGGAUGCCUCCAAA, the “self-cleavage kobs at 2500 uM GlcN6P” value is 0.000978 ± 0.0002 s⁻¹.

For AUAAAAGCGCCAAAACUACAGAAAUGUAUUUGACGAGGAGGAGGUUUAUCGAAUUUUCGUCGGAUACCUCCAAA, the “self-cleavage kobs at 2500 uM GlcN6P” value is below 1e-05 s⁻¹.

Turning to AUAAAGGCGCCAGAACUACAGAAAUGUAGUUGACGAGGUGGAGGUUUACCGAAUUUUCGGCGGAUGCCUCCAAA, the “self-cleavage kobs at 2500 uM GlcN6P” value was below 1e-05 s⁻¹.

As for AUAAAAGCGCCAGCCCUACAGAAAUGUAGUUGACGAGUAGGAGGUUUAUCGAAUUUUCGGCGGAUGCCUCCAAA, the “self-cleavage kobs at 2500 uM GlcN6P” value is below 1e-05 s⁻¹.

Regarding AUAAAAGCGCCAGAACUACAGAAAUGUACUUGACGAGGAAGAGGUUUAUCGAAUUGUCGGCGGAUGCCUCCAAA, the “self-cleavage kobs at 2500 uM GlcN6P” value amounted to 4.42e-05 ± 1.1e-05 s⁻¹.

AUAAAAGCACCAGAACUACAGAAAUGUAGUUGUCGAGGCGGUGGUGUAUCGAAUAUUCGUCGGUUGCCUCCAAA: the “self-cleavage kobs at 2500 uM GlcN6P” value is below 1e-05 s⁻¹.

AUAAAAGCGCCGGAACUACAGAAAUGUAGUUGACGAGGAGGAGGUUUAUCGACUUGUCGGCGGAUGCCUCCAAA: the “self-cleavage kobs at 2500 uM GlcN6P” value stood at 5.07e-05 ± 1.5e-05 s⁻¹.

Variants of B1 are the subject of a further data set. Kind of data set: self-cleavage kobs at 10000 uM GlcN6P; higher = faster cleavage; RNA array. The settings on record: with glucosamine-6-phosphate. In outline:
as §1
For the variant AUAAAAGCUCCAGAACUACAGAAAUGUAGUUGACGAGGAGCAGGUUUAUCGAAUUUUCAGCGGAUGCCUCUAAA, the “self-cleavage kobs at 10000 uM GlcN6P” value was below 1e-05 s⁻¹.

On to AUAAAAGCGCCAGGACUACAGAAAUGUAGUUGUCGAGGAGGAGGUUUAUCGAAUUUUCGUCGGAUGCCUCCAAA, for which the “self-cleavage kobs at 10000 uM GlcN6P” value is below 1e-05 s⁻¹.

Consider AUAAAAGCGCCAGAAUUACAGAAAUGUAUUUGACGAGGAGGAGGUUUAUCGAUUUUUCGGCGGAUGCCUCCAAA, for which the “self-cleavage kobs at 10000 uM GlcN6P” value turned out to be 0.00591 ± 0.00094 s⁻¹.
